Experimental data as given in the DeepSol protein solubility set.

assay: soluble on expression in E. coli; label from the status in PepcDB or PDB records

| Sequence | soluble on expression in E. coli |
| --- | --- |
| MAIGKKVSKKTPLLLAADSHKNAAKMPCFLLQAHRIANTVIAGWHGQRKRGNGENFWQFRPYVEGESITRIDWRRSARDGHTYLREHEWEKTQTVWIWPDQSASMHYCSCFSQTSKDNYAIILALTLATLLARSGENIAIPTLMPPTMAPNVVERMALALVNRHTENPFPDFSTITRFSHVIIMSDFLDSPEKIIQNLTVLSAKQITVHLIEVADPAEEHFPYAGHTEFFDPETKEKRILGKAENSREHYCKLYQARRQELTNFCTRQGWTYHVSKTDRPLTEVILRLANKIGISPSHNRRSL | not soluble |
| MEKAPLLLETVEQAVRILQESPFVAIWNYKVLSVQAGAVALALPAQPQFYRPGGIIQGGCLMTLADTAFWLAAMTELGIDAPIVTLEMKTHFLRAAQADVYCRAEVMKSGRRVTYGTATITDAAGQTLSHHTLTYLAA | not soluble |
| MKEDWPEPVKEYNTGQVLFDRLELTRTNEEENLAVWDMIAWYGGDYHRAVFKSEGENVQDDGEPTDLERAELLYGYLVSPFWSFQAGIGTRGTLSSDASMENYAVVSFMGLAPYWFEMDNSLMVNEEGDVQFVSETEYEWQLTQTSYLQPRIELTANLTDSDKYERQSGLSNLRVGLRYRHEISREFAPYIGVYWNGALGNTADEMKRMGKDTTETGVVLGARVWFLEHHHHHH | not soluble |
| MGSDKIHHHHHHMFAKFVQRHGAARKAADKTIRAQAGALYAALKDPPGPPHAPASAEHREHQEQDAKEQTMYNDSKHGFDVAQTEYEAFMLEPHDWVPNNRKLPVVIYRRALMPASGDLAAAFEILFERNAWPPQWRDGIFDYHHFHATAHEILGVTDGSAQVIVGGPGGRVVTLCAGDALLLPAGTGHCLQSFARHFQVVAGYPEGQQWDIRREALTPDELASMEALPFPSLDPIDGKHGPLVEHWLHAA | not soluble |
| MGSSHHHHHHSSGLVPRGSHMSLDMKEHPDAEVQKNQVLTLEDWKEKWVTRHISFHQEQGHQLLKKHLDTFLKGQSGLRVFFPLCGKAIEMKWFADRGHTVVGVEISEIGIREFFAEQNLSYTEEPLAEIAGAKVFKSSSGSISLYCCSIFDLPRANIGKFDRIWDRGALVAINPGDHDRYADIILSLLRKEFQYLVAVLSYDPTKHAGPPFYVPSAELKRLFGTKCSMQCLEEVDALEERHKAWGLDYLFEKLYLLTEK | soluble |
| SLNKNARLQQENHFLSLQRSRYDNLCAAIEETRQVRHDIRHHYLQLAALAEKGDMEKIKEYLSSADRKMPSFDFHFCDNQAVDSILGYYSNHAKQEGIPFLAQIDIPDNFLGDEMDICLVLSNLLENAIEASLKTEDSRRKIVIKMYLHHTHILLIQAENNFDAKILEKNGVFQSTKHSGNGIGIQSIRHITERNGGASNFTYKDGEFTAKIMLRI | not soluble |
| MPITIGRGFLKSEMFSQSAISQRSFFTLLWEKIKDFFCDTQRSTADQYIKELCDVASPPDAQRLFDLFCKLYELSSPSCRGNFHFQHYKDAECQYTNLCIKDGEDIPLCIMIRQDHYYYEIMNRTVLCVDTQSAHLKRYSDINIKASTYVCEPLCCLFPERLQLSLSGGITFSVDLKNIEETLIAMAEKGNLCDWKEQERKAAISSRINLGIAQAGVTAIDDAIKNKIAAKVIENTNLKNAAFEPNYAQSSVTQIVYSCLFKNEILMNMLEESSSHGLLCLNELTEYVALQVHNSLFSEDLSSLVETTKNEAHHQSLEHHHHHH | not soluble |
| MNQYSSFSPSSPSSSSRPSGGGGQSSHQTTPKSSGNPRQQQAQPRHRQRKAQSSSPASLAAFASSSVCSSPSARNVPLPPVEWLNQLQVPGQLENSSRPSSSISMTSSASSSTSSLSSSDAPMITMTPRRAAQKEMKPKTDVLGVRVCPLQLIAAIASA | not soluble |
| QAFVSAQTSTIPKTAFTAHDFVDYTLPQEQKGKEQKEQQWMKNSQTKDTDVHPYADFAVLEILLFPDSSTDRKIFNHFIQPAIRAYKQLGDSLNIFANQTLDQPKHNRYYLLGYPFLRNKAASLFLNQTEQRKEHMDKTTQILHEKPFVVLTDPAKPTLIRNKGANFTGNTWTSNYDL | not soluble |
| MGSDKIHHHHHHMLQPHEMHLAGDLLDFLRDPSTAIARDFATQATLMRIASGATVFAEGDECSFFAILADGQIRVFKIGETGREITLYRFGRGESCILTTSCVLSNHQFPAIAVVEREATAFLVGQAIFRDWIERYSAWRDYVFQLLSRRLASVMAIIDEIAFRRVDVRLAAFLLRQAVGDPPTLNLTHQQIAAELGTSREVVSRILADFSEEGLISSSRGQITVCDRTRLYQRSEAR | not soluble |
| QSTVKIILEEDTETLDEVVVVGYGVQKKSDVTGAMARVTSKVIEDRPVQNALQAMQGRVTGVDITSNNRPGELGDIRIRGNRSLTADNNPLYVIDGIPMSAGSIADVNPSDIESMEILKDASATAIYGSRGANGVILVTTKKGKTGR | not soluble |
| MKISIICPLYNAENYIMSLHNKILEQEKPEGTEVEVSYVLTRCKDKTEEMLKNMNLQYTLIEPKDFSHSKTREMMAFKSTGDIIVFISQDVMMKNNFWLKNLVQPIIDGECEASFSRQLCTNNTIEKYIREKNYPEESRVVSKKDINKYGLLTFFYSDASSAVKTSVYKELNGYDNKRLLINEDMYFAEKLIQAGYRIKYCSDSEVYHSHVFTLKSLYERYFDTGVFFRQNSQFLNYKGNKSGKDLAIHVLKRSLEDKNFKVTLNILPNFGARFIGSFLGKKYESLPRSFVMASSMSKKVYSQILEHHHHHH | soluble |
| GPGSMEEDLAYKIIVIGSVSVGKSNITSRFCDGAFYPDLVPTLGMDFKYSSCNTLEKRPRCVRLQVWDTSGQDDFVTLTTAFYRNCQGALLCFDLTNRQSFEDLDQWYERLERYSPVVPPLILVGCKLDLVESHLDEQGEGIVLGSHRQIAKSEADAWARYHSCLCYLETSAKENRNVSQAFQQLATCIASVANPGAKHAGRILGPGGRLLVEEEKQQKRQCCAN | not soluble |
| MEEPFEAYRSREVAMKLVEKIREEAKTLDGEIRIMHVCGTHEDTVTRHGIRSLLPENVKVVSGPGCPVCITPVEDIVAMQLIMRKAREEGEEIILTTFGDMYKIPTPMGSFADLKSEGFDVRIVYGIFDTYRIAKENPDKTVVHFSPGFETTTAPAAGMLNVAAQEELENFKIYSVHRLTPPAVEVLLKQGTVFQGLIAPGHVSTIIGVKGWEYLTEKYGIPQVVAGFEPNDVLMAILMLIRMYKEGEARIINEYERAVKYEGNVVAQKMIDKFFEVVDAKWRALGVFPKSGLELRKEWKDFEIRSFYKVEVPKNLPDLEKGCRCGAVLRGLALPTDCPLFGKTCTPRHPVGPCMVSYEGTCQIFYKYGVLF | soluble |
| MGSDKIHHHHHHMLKSQEIRQKAPELDSLRLGSGWKSEELNKAQIIIESSFGHSHPGSAHLDTLVDEAFKSIDDNGGRGAKYFVTDICDGETQGHDGMNYSLASRDIMTNLMEIHVQATPFDAGIFIASCDKAVPAHLMAIARLDMPSILVPGGIMNAGPNMLTLEQIGTYNAQYERGEITKEQYEHYKQNACPSCGACSFMGTASTMQVMSEALGIALPGTALIPVTSKELKLAAKNAGKQILKLIELNIKPSEIMTKKAFENAIMVHAAIAGSSNCLLHIPAIAHELGMDIEPELFDEIHKKIPYILNIRPSGFYPGSYFWNAGGVPAIMEEIKEFLHLDVMTVTGKTLGENLEDLKNSGYYEEHDKLITSLGIKKEDVIRTKENPIQSQGAIAILKGNLAPGGAVVKHSAISKKLMQVVLKARVFNCEEDAIKSVLTKNIKPGDAVFVRYEGPKGSGMPEMFYTTEAIASDHELVDSTALITDGRFSGATRGPAIGHVSPEASEGGPIAFVQEGDLIKIDIPARKLDIIGTNGIEKSEKEIENILKERSQNWVKPAPRYTKGILGLYTRCASSPMKGGYME | not soluble |
| MGSDKIHHHHHHMTHFGVDLWDRFTTRIGEARETLRAAGAPTGLLDQAEGARYLSRIVRLGLEMYLEGGDPDFPSFVLPSHATAKLGGDNPDNLYLSATILGDRSYRLTGNIGSVHYLSIGSKANRYAIDGTMASTGELQKEAFRADANGDFTVIASVKRPEGDVAWLPLAPDSNILQVRQTFLNRARETPARFAIERISEGLAHPAPTDPLAIERRMMAAADFVVNATRMFASWTAMFMPYPNEMRDWGQDMFHKAGGDPAIFYVHGYWKLAPGERLLIETDVPECEHWNIQVDNWWMESMDYRYLPACINAGNAEREADGSVRIVLAADDPGERNWLTTHGHSEGHLLLRWVRAASHPIPKLTLLRD | not soluble |
| SMGGFMEDLRKCKIIFIIGGPGSGKGTQCEKLVEKYGFTHLSTGELLREELASESERSKLIRDIMERGDLVPSGIVLELLKEAMVASLGDTRGFLIDGYPREVKQGEEFGRRIGDPQLVICMDCSADTMTNRLLQMSRSSLPVDDTTKTIAKRLEAYYRASIPVIAYYETKTQLHKINAEGTPEDVFLQLCTAIDSIFL | soluble |
| IEETGTVIIAGIGRFGQIVNRLLVSNGVTTVVLDHQANQVDNMRQIGTRAYFGDATRPDMLHTAGIEHAAALVVAIDNQESSVELVKYVKHTYPKVKIIARAFDRGHGYLLRQAGADVIESETYHSALEMGGHAMKALGI | not soluble |
| MTQSNPFQQYGITSGLAAAAAAKASVLAAMGTISDYVGVPTPIGLRIEVKVEMMKQIDARSGIAAVRKFSGDNPDTLNGALFESRAVIRDDGLINIFAGEGIGVAVSDGLPVRRGDPAINPVARMMIENAVREVSGSAGFDVYISVPGGEDLARDTMNPRVGISGGISILGTTGIEEPVSGPDYEAHIEYLLQTGRCVSTVAVMCPGNTAMRFAESYLRLHPASFILTGDRIGSAIEMAIEKGYREIVVFGLPGKLVKMAAGVMNTHSRIADARFETIAAYAALNGADRDTISKILSSNTVESAFAVLRSIGLLDSVAGAIASRIVERLRSPVWQIRRILLRHDRFRRQAIRVSPVAGHIETGE | not soluble |
| GSMVENSELRKAGLKVTLPRVKILQMLDSAEQRHMSAEDVYKALMEAGEDVGLATVYRVLTQFEAAGLVVRHNFDGGHAVFELADSGHHDHMVCVDTGEVIEFMDAEIEKRQKEIVRERGFELVDHNLVLYVRKKK | soluble |
| MSTHEATLQQPLLRAIDLKKHYPVKKGIFSPERLVKALDGVSFNLERGKTLAVVGESGCGKSTLGRLLTMIETPTGGELYYQGQDLLKHDPHAQKLRRQKIQIVFQNPYGSLNPRKKVGQILEEPLLINTSLSKAQRREKALAMMAKVGLKTEHYDRYPHMFSGGQRQRIAIARGLMLDPDVVIADEPVSALDVSVRAQVLNLMMDLQQDMGLSYVFISHDLSVVEHIADEVMVMYLGRCVEKGTKEQIFNNPRHPYTQALLSATPRLNPDDRRERIKLTGELPSPLNPPPGCAFNARCSRRFGPCTQLQPQLKEYDGQLVACFAVDQDENPQKPLS | not soluble |
| MGSDKIHHHHHHMYCNMLISLLTFISVEILYNKSNKKYGGNDMSIVQLYDITQIKSFIEHSNYESASYLYKLPQQYNEIDVLITDAIESPGVFSIKENDSIKAIILSFAYDKNKFKVIGPFVADNYVLSVDTFETLFKAMTSNQPDDAVFNFSFEEGIQQYKPLMKVIQASYNFTDYYIEARTRLEEDMHQPNIIPYHKGFYRAFSKLHTTTFKYQAQSPQDIIDSLDDHHHLFLFVSEGLLKGYLYLEIDSQQSIAEIKYFSSHVDYRLKGIAFELLAYALQYAFDNFDIRKVYFKIRNKNNKLIERFNGLGFHINYEYIKFKFESRNVKDQTIPE | not soluble |
| MGSDKIHHHHHHMAVGTTKMAQMLDPEVLADMIDAEVGKAIRFAPLAEVDTTLEGQPGTTLTVPKWDYIGDAEDVAEGEAIPMTQLGFKKTTMTIKKAGKGVEITDEAILSGYGDPVGQAAKQIVEAIDHKVDADVLDALSKSTQTVEATATVDGVSKALDIFNDEDDAETVIVMNPADASTLRLDAAKEWLGATEVGANRVVSGVYGEVLGVQIVRSRKCPKGTAYMVRKGALRIMLKRNTMVETDRDITKAINQIVANKHYGVYLYKAEKAVKITLKDAAKK | not soluble |
